Measured values published in a protein production outcome set (Wang et al. 2014).

Assay: label from the status in PepcDB records
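Note: failed if final PepcDB status was selected cloned or expressed and not failed if soluble or beyond.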

MILLCFPGSEQGIGMHQFEFLGQLVLIGALAIVNILVFQKIRIPPVIGLIFTGIMLGPTGFHVIRNSGLISTLAEMGVVLLLFTIGLEFSADDLKKLRKIVLFGGTAQILLTGLVIAMFSYWLMDAIGKSVGSKEALVLGFSFSVSSTALCLKILSDRGELGFDHGKIALGILIFQDMAIVPLMFGFSFLTRGSSMPLESSFEEIALLLLFAIGMFGGFRLLMPKIVRIITELHAGEVLVLGALVLCFGAAWLASLIGLSLALGAFMAGMVIASTDGSHRISRTIDPFREAMTSIFFVSVGLLLDVNMIELPWLIAIALVVLVVKGLIMTGILMALGFSLRVSLMSGMVLAQIGEFSFVLAGTAKDAGLLDQHMFQSMLAVIVVTMIVTPALISAAPKFAAQVAPALGFMPLASKPEPKQPARAAAGPIVCRGEIHAAIIGFGLIGRNIAAVMNATNLNYTVLDTDRKTVKTMRRQGEPLFYGDCTERKSLLRIGVDHSRAVVICIPEIDAAIQCIRLVREINPGAFIIVRSRSLESTNRFYRAGADAAVTELFETSIQMFSELLKHFRVEPETILAQQEIIRREGGNIFRELVTETDGSGDDPAKKSQNGAGFVTSET
protein production: failed

MSSVSDVAFFMEVVKAGTLSGAAQELGVSTAAVSRRLANLEVRLGIRLLNRTTRRAAVTYEGELYLAEGKKILGELEELEQRLASAHSVPKGLLRVNATFGFGRQFIAPAIADFVELHPDVDVQLSLSDRPVNLIEDGFDVCIRFGDLPDARLTSRKIACNRRLLCASPGYLERFGIPASPMDLQRHRCIVIRESDETYGAWHLYSGAAQANVKVRGTVSTNDGEVAVDWALRGLGILLRSEWNVAPYLRSGRLREVLGDWRFPPADIHAVYPMKSNLSAKVRAFVSHLDKHFEPYRPRAEGKSRW
protein production: failed

MIPMEELKVKKITNGTVIDHIDAGKALMVFKVLNVPKETSVMIAINVPSKKKGKKDILKIEGIELKKEDVDKISLISPDVTINIIRNGKVVEKLKPQIPDEIEGTLKCTNPNCITNKEKVRGKFKIESKNPLKIRCYYCEKFLNEVIFE
protein production: not failed

MIIERLVGNLRDLNPLDFSVDHVDLEWFETRKKIARFKTRQGKDIAIRLKDAPKLGLSQGDILFKEEKEIIAVNILDSEVIHIQAKSVAEVAKICYEIGNRHAALYYGESQFEFKTPFEKPTLALLEKLGVQNRVLSSKLDSKERLTVSMPHSEPNFKVSLASDFKVVVK
protein production: not failed

MTHRIAPRCFSTIMLLCLLYTSPLDVIAQGQGGQGDIPVVNPTAPGGSTTTPTITQPSPPSLTFPGPTTPTGGYPPLDGTTPTGGYPPLYGTTPPGGGDVGGGGGGYGGGTPGGGGGGGGDTGAGAGGGGYGGGGDTGAGGGVGSGQWCIAKANASPTSLQVALDYACGYGGADCGQIQQGAACYEPNTIRDHASFAFNSYYQKHPGSDSCNFGGAAQLTSTDPSKTS
protein production: failed

MNNSTQTAPDSGNTLVISNVHLLLSDGWKNDTCLQVTEGVITAIGQDVVQGNSQVIDAGGGYLLPGIIDLHGDAFERHITPRAGTLFPLDLALAANDASLVANGITTFYYSITDGFEPGPRSRETVRKLLLALEELMPRFSCQAKVHIRHEKVNTEGHDELVDWLRNGRVHMLSLNDHLPELDNERAVKRYLAGLQRRVTMDDDATQEFLSSLQGRRELGEEQTRALASLALASGVSLSSHDDHGLEDVARNVQLGTAIAEFPMDAQTALESRKSGISVLMGAPNLVRGGSHVGAISVRDAIAEGLVDILCSDYHYPSLFTAPFVTARHDLLPLADAWKMVSENPARAAGMGDRKGQIAPGYDADLLLLSELDGSPLSLQATFVGGTPVYQREGQWQKQPLAAEAGGVVV
protein production: failed

VLYYKDFKIGLGKNQKENIKLLQDARANDLWMHVRNIPGSHLIVFCQKNAPKDDVIMELAKMLIKMQKDAFNSYEIDYTQRKFVKIIKGANVIYSKYRTISLKDT
protein production: failed

MARGIWGVDSAQVVTDQLFQCVRTELGYPKFWGRYLSEVPNVSEGLTRDEIVRIRNYGVKVLPIYNAFREAVGYANGQVAARNAVFHARRLGIPKNKLLFANIEDFFAVDAAWIAAWVETLYPTGYRPGLYADPTKGDFAAAYCEAVSRNNQVAVQAVIWSAAPRPGTTKEQKAPRYQPAAPPCSANVWVWQYGRDAEVCPVDTNLADRRLLDFLY
protein production: not failed

MSLADTRKIDSVLLIDDDDIVNFLNTTIIRMTHRVEEIQSVTSGNAAINKLNELYAAGRWPSIICIDINMPGINGWELIDLFKQHFQPMKNKSIVCLLSSSLDPRDQAKAEASDWVDYYVSKPLTANALNNLYNKVLNEGHHHHHH
protein production: not failed

MMERFDISAQDLKSFGFTTLFCIVIALATMSIWGGLFGEHLAISFSYGYSAFFSAQWIARRWPELSKRLVNILSLSCAVVLGTSSAYLWLRHYPGFDEFSAYKPIIFLGFIFSAVCFLYFYSHEQKILAQGALEAARRRQSEQEKALLLSQLKQLQSQMEPHFLFNTLANINALIAVEPYKAQLMLEKLTELLRGTMRLRRTNTGDLREEMQLIDAYLGIQKIRLGERLEYTLPELSELGTLGMPPMLIQPLVENAVSHGIEPKAEGGTIRVRIEVADDWFELSVEDNGMGLSDTPKGNGIALQNVRDRLSGLFGHEGLLTVAQNCSGGVTATLRIRLHHLQGLQRSFYDYSQARSPQS
protein production: failed

MFSNVNKTTSAEAGKSAFWAMSIFLLLLSIMLLVLGLYYQIVLHHTPAPLLLGIAAGFGLGTPLEIWNFSDPDTLMRVMAFQDRFLIVCFGFSIGLGAILLYLFAAIPGVSPHYGIKDFFVFGVVVGGLLFGVGVGLAGYFPGTIWIALGQGRRDAIYAVFGGLLGALTWSLIFGAARGFFWNTFNYGPITWYSIFGIKSHLEIFGTSLIFGAILLGMFLFLPRYPKQPVKESCGFHLAGKNNKVLTFDDMIDDENKKYPDQNQYLIRLTNESSIRNARSIIVLGIAFTVIAVAVILLRQIFGESTTYSWIGAQLFYAVNPQYAASNPYWNLFGGMHIVNGKPIDLPFSEIGWEPFSDLGTFLGGLISSIFISKRFMKFKKRVPLVWEHRFGPSDKKRFVGSFFGAFLVLFGARMANGCASGHVLSGNIQMAISSFVFLMAVLIGSWLTLYFVMGLKLNSRGYRN
protein production: failed

MVPDVFIEVSLVIFIAFFISLVMRMLKQPLIIGYILTGILVSPYFLNIVRFEESISTLGHYGVTILLFMVGISLNPGYFKEIGKISLITGLGQILFTFSIGFLISVFLGYSLIESMYISIALTFSSTIIIMKLISDKGDIDKLYGKISIGFLIVQDIVAMAILVLISAFNVQSGAGELLFLIISKIVLILTAIYIFTKYALSNFISYASKNQEFLFLFSLMWCFTLASLFHLLGFSSEIGALIAGIVLAIFPERYEIASKVRPLRDFFLILFFVVLGVQMTFETSGNFIIPAIILSIFVLFGNPIIVMILMGAFGYTKKTGFLAGLTVAQISEFSLIIASLGLRNGHISQEIVSMITLIGIMTIAGSSYFITYSERIYALLSNYLSIFEKKTKISEKDFKNKNTGEIILFGADRTGKNILNVIENSKERFLIIDYNPKIIKNLSKRGYNSVYGDASNLELLNELNFKESKMLISTISDIETDILLIKTILKSNKNAIIIVIAHKIEDAIKLYEEGASYVIMPHFLGSIHASLMIQKYGLNIEEFLKEKSNHIESLKKSQELFRHTK
protein production: failed

MPIDQEKLAKLQKLSANNKVGGTRRKLNKKAGSSAGANKDDTKLQSQLAKLHAVTIDNVAEANFFKDDGKVMHFNKVGVQVAAQHNTSVFYGLPQEKNLQDLFPGIISQLGPEAIQALSQLAAQMEKHEAKAPADAEKKDEAIPELVEGQTFDADVE
protein production: failed

MTEPCYVMVDQRFDEFVDTARAPEQIVHGFAWTEGPVWLDGAPFFNDIANKRMMRWTKQACAEVALDNSEFANGNTLDGAGQVVSGEHAGRRVIRRPDPTDPSAVEVIAERSEGKRLNSPNEVVVRSDGSVWFTNPPYGINSDIEGYPAESEIGGCFVFCPDPDGTLHAVATEFDKPNELAFSPDECRLFVADSGAIRGAIFPGIDDDLPHHVRVFDVDGVTLSNGRVFAVVAPGAPDGFRVDHEGYVWTSALDGIHCLSPEGALIGKIWLPRQTSIICFGGPPGQTMFITSSDKVYRVESTRRDAAHALRDRERNAE
protein production: failed

MAALGLGTYGAHVFKPENPSYKQVWQTASLYHLVHTAALVSAPSTKYPNIFGGLLTAGIVAFSGTCYMVALREDRKFSTLAPFGGFAFIAAWATLLF
protein production: failed

MRQARGRVHKNLGARVGSARPRSSLGHRTGIMKGQDMPGTVRLHRVLTTSPEKVYRAFVEADALAKWLPPNGFTCTVDHLEAKVGGTFKMSFRNFTTGGSHAFGGEYLELVPGERLRYTDRFDDPNLPGEIQVTVILKKVSVGTEIDITQAGIPDVIPVEACYLGWQESLRNLAKLVEPEINQ
protein production: failed
